Measured values reported in patent US20230407326A1, “INDUCIBLE PROMOTER FOR VIRAL VECTOR PRODUCTION” (ASKLEPIOS BIOPHARMACEUTICAL, INC., priority 2020, published 2023).

Tests used:
HEK293-F cells = test: Luciferase expression from hypoxia-inducible promoters in transiently transfected HEK293-F cells under hypoxia; format: cell-based, human; conditions: hypoxia 5% oxygen, 3, 5 and 24 hrs
Procedure: 40 ml of cells were grown in a 250 ml vented Erlenmeyer flask (Sigma-Aldrich CLS431144) at 37° C., 20% O2, 8% CO2 with agitation at 100 rpm. Cells were seeded as described in the manufacturer's instructions (300,000 cells/ml). HEK293-F were obtained from Thermofisher, R79007.
(§1) One day before transfection, the cells were counted using a haemocytometer and split to 500,000 cells/ml.
On the day of transfection, the cells are seeded to 1,000,000 cells/ml in 500 μl of appropriate medium (Freestyle 293 expression medium, 12338002) in a 24 well plate. 0.625 μg of DNA per well was then added to 10 μl of OptiMem medium (Thermofisher; 11058021) and incubated for 5 minutes at room temperature. […]
After transfection the cells were incubated for 24 hrs in normoxia conditions (20% oxygen) before being switched to a gas mix of 5% oxygen, 10% carbon dioxide and 85% nitrogen (hypoxia). […] Induction of the promoters was assessed by using luciferase activity after 3, 5 and 24 hrs in hypoxia.
(§2) Luciferase activity was measured using LARII (Dual Luciferase Reporter 1000 assay system, Promega, E1980).
Media was removed from the cells at the respective time point (0, 3, 5, 24 hrs after induction). […] 10 μl of supernatant was pipetted into white 96-well plate and luminescence measured by addition of 50 μl of LARII substrate. […]

HEK293-T cells = test: Luciferase expression in transiently transfected HEK293-T cells, normoxia vs 24 hrs hypoxia; format: cell-based, human
Procedure: HEK293-T are seeded at a density of 20%. Once they reached a confluence between 60 and 80%, the media is changed with DMEM (#21885-025—Thermo Scientific) supplemented with 10% FBS (Gibco, 26140). After 3 hours, the cells were transfected by a transfection mix. The transfection mix is prepared by adding DNA (2 μg per 6 well plate) and PEI 25 kDA (#23966-1-Polyscience) in a ratio of 1:3 in sterile DPBS (#14190169—ThermoFisher Scientific). After mixing, the transfection mix is incubated at room temperature for 30 minutes and then added directly to the cells. After 16 to 18 h post transfection, the media is changed to DMEM+2% FBS. […]
After transfection the cells were incubated for 24 hrs in normoxic conditions (20% oxygen). Induction of the promoters was assessed by using luciferase activity after 24 hrs in normoxia or hypoxia (5% oxygen, 10% carbon dioxide and 85% nitrogen). […]
as §2
Media was removed from the cells at the respective time point (0, 3, 5, 24 hrs after induction). […] 10 μl of supernatant was pipetted into white 96-well plate and luminescence measured by addition of 50 μl of LARII substrate.
β-galactosidase activity was measured as per manufacturer's instructions (Mammalian βGalactosidase Assay Kit, 75707/75710, Thermo Scientific) using 25 μl of lysate. […]

CHO-GS cells = test: Luciferase expression in transiently transfected CHO-GS suspension cells, normoxia vs 24 hrs hypoxia; format: cell-based, Chinese hamster; conditions: CHO_GS suspension cell line
Procedure: 40 ml of cells were grown in a 250 ml vented Erlenmeyer flask (Sigma-Aldrich CLS431144) at 37° C., 20% O2, 8% CO2 with agitation at 100 rpm. Cells were seeded as at 300,000 cells/ml.
as §1
On the day of transfection, the cells are seeded to 1,000,000 cells/ml in 500 μl of appropriate medium (Thermofisher, CD-CHO 10743029) in a 24 well plate. 0.625 μg of DNA per well was then added to 10 μl of OptiMem medium (Thermofisher; 11058021) and incubated for 5 minutes at room temperature.
Concurrently, 0.625 μl of Freestyle Max reagent (Thermofisher, 16447100) was made up to 10 μl by addition of OptiMem and incubated for 5 minutes at room temperature. After this incubation, both mixes were added to the same tube and incubated at room temperature for 25-30 minutes. The DNA/Max reagent mix (20 μl/well) was then added directly to the cells and the cells incubated at 37° C., 8% CO2 with agitation at 100 rpm. […]
After transfection the cells were incubated for 24 hrs in normoxic conditions (20% oxygen). Induction of the promoters was assessed by using luciferase activity after 24 hrs in normoxia or hypoxia (5% oxygen, 10% carbon dioxide and 85% nitrogen). […] Luciferase activity was measured as described above.

B1: RTV-015: synthetic hypoxia-inducible promoter, five HRE1 and synthetic minimal promoter MP1, SEQ ID NO: 1 (nucleic acid)
DNA: ACGTGCGATGATGCGTAGCTAGTAGTGATGATGCGTAGCTAGTAGTACGTGCGATGATGCGTAGCTAGTAGTGATGATGCGTAGCTAGTAGTACGTGCGATGATGCGTAGCTAGTAGTGATGATGCGTAGCTAGTAGTACGTGCGATGATGCGTAGCTAGTAGTGATGATGCGTAGCTAGTAGTACGTGCTTGGTACCATCCGGGCCGGCCGCTTAAGCGACGCCTATAAAAAATAGGTTGCATGCTAGGCCTAGCGCTGCCAGTCCATCTTCGCTAGCCTGTGCTGCGTCAGTCCAGCGCTGCGCTGCGTAACGGCCGCC
promoter activity (luciferase) relative to the other promoters (HEK293-F cells): weakest | luciferase expression in normoxia and after 24 hours in hypoxia (HEK293-T cells): almost no luciferase activity in normoxia but is induced after 24 hours in hypoxia | luciferase expression in normoxia and after 24 hours in hypoxia (CHO-GS cells): almost no luciferase activity in normoxia but is induced after 24 hours in hypoxia
